These results are taken from the domain aggregation screens of Martell et al. (2025).
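Also: 20 min heating vs room temperature control held 20 min.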

The data set can be described thus: soluble fraction after stress (log2 fold change); higher = more stays soluble; pooled small domains, quantitative proteomics. The conditions noted are these: stress: 75 degC.
For the sequence “HMPSPFYIMDEVEAALDDTNLGRLITLFEELRDSSQLIVITHQKKTMEIADALYGVTMRGDGITTVVSQRL”, the “soluble fraction (log2)” value worked out at 0.151.
As to “HMPSQEQSDKNAAMAFLPVIVKNALNGKGLKISDDWKAAVNTALAQYPLVNKFFNADSPEVTELVMGL”, the “soluble fraction (log2)” value is -0.0584.
As for “HMPSQLPLAFARRHGVLLRGFSNGLAQLTVRPEVSTLSLAETRRHLGVPLALEKVTTERFDQLLREAYEA”, the “soluble fraction (log2)” value was -0.9.
As for “HMPSYYKELQNYSPENPVVKKRKVHPDVVNAIKYLAEITDGNPMLIKAYAQMILAHVFTTMPLIDKSV”, the “soluble fraction (log2)” value is -0.00519.
Take “HMPTEAIVLQQIQIRQSPSGNSKSLQQILPGAKIKITSESSVKGWKQVSLDGGQKGWIPTAAIGL”: the “soluble fraction (log2)” value was -0.499.
With “HMPTELVYTVPASAEGLRLDHFLVQHVPHMTRALATELTGAGGVRVNGRRAKKGDRLPSGAEVRLER”, the “soluble fraction (log2)” value worked out at 0.0576.
With “HMPTFAEKLHEVRKARDFTQDQLAKEMNVSRQTISHWENGRAVPDIDTIKHLSQVLDYNFLV”, the “soluble fraction (log2)” value is 0.0869.
To “HMPTITIQRGIILSSTTKGFIDELSHSQIKNAIVERLGEHHVMIHESQLDAVIKYAQKKEAVINIYL” belongs -0.874; to “HMPTMEQTYIGRTMIAEEDMGKNSKIKVSGIYWTAYNKGRVIKKGEEYKITGIEGNKLIVSSK”, -0.393.
To “HMPTNSDRLIGSDGVVSSKIDNLQGTGKVYISGLTWSARTIDGSEAEEGDIVTVEKIEGATLYVTKR” belongs 0.174; to “HMPTNVYSIIGKEGIVLESIDNLNSTGKVKVNGELWSAISDSNIEKGETIKVLSVNGVKLKVEKVN”, -0.00656.
“HMPTPASGSSGYINATNVNFRTGPATSYKSISKLAKNTAVTILGTSGNWYKVTVGSLGKNGYVFATYVTVS”: the “soluble fraction (log2)” value is -2.23.
The value for “HMPTPLTPREHEIANLIAQGLSNREIADELVISPATAARHVANILAKLGFSSRTQVASWATRHD” was -0.277; that for “HMPTSLPGIDIDEKNIVSSTGALSFKKVPKKLAIIGGGYIGLEMGSVWSRLGSSVTVIEYLNFITPG” was 0.365.
With “HMPTTLEGIEKYLSSGLIKGIGPHLAGKLVEAFGTRVFEVVEHQPERLRTVGGIGRTRAESITSAWRDQ”, the “soluble fraction (log2)” value was -0.146.
Consider “HMPTTNIRAFRLREADPESVKEALSMVMPKTSIYVDARTKSVLVVGLLDELARAAEIVALIDQP”, for which the “soluble fraction (log2)” value is -2.8.
With “HMPVFSAEQVAKAEADVQKVANKVQEAGADVEKLTTIHNWLLAREKYMPPDLFSTANQIIATAFQKAG”, the “soluble fraction (log2)” value turned out to be 0.525.
As for “HMPVGSIGERLKALRLKAGLTQEEVGQHVHISKQTLYKYENGIVTNIPADKIELLATIYSVTPAYIMGWA”, the “soluble fraction (log2)” value is -2.27.
As to “HMPVQPMDPSIEHISALTGKQFQAFPGQDHRAHMTAHLNFMSTNIVRNNPAVMGAIQKNILEHISLMAQEQ”, the “soluble fraction (log2)” value came out at 0.322.
To “HMPVSLHEQIQQARIRAEQNVEGISLLLQVNPKYYEQIEAGDVIPDQDLLKRISSLFGWNYHEMLHREKSS” belongs -0.781.
The value for “HMPVSTLLGDNLRRLRTAKGYTQEAVADAARISVAAYRNYETGRAIPKVNTLLAIARALGVSLNDLVTE” was -0.605.
The value for “HMPVTAQFDFSKVLAGRTLKDGEFSFVLKDKNGTVLQTKTNDASGKVAFDALIYKNNEVGEHKYTVEEVI” was 0.237; that for “HMPVVKIPFILTEGPSSITKVIEIDADEILELKDVFQEDDKLWSINQIEMNDGRYVKHSDASLIVRASALR” was 0.233; that for “HMPYHSEAWHKVMKSHWLTLSREEAYMHEGRTGASTINIVFQRELGREATQEEIESIYQEKSVLFNSYP” was -1.52.
For the sequence “HMPYLVNGFILEVQSDDNNPVGTLKRRYAVAKNKQGVILLEGEKSFSSNDQILINELKFYIQSNDLKA”, the “soluble fraction (log2)” value was -2.56.
On to “HMPYSKIALQISHLLKSHGVPLSNKQIYEKLINDFQLSINYSNLTNNILPRMNSDSSINVEKVTRGYWQY”, for which the “soluble fraction (log2)” value is -0.931.
The value for “HMQADKYKSYTATDFLKDKDFLRWQLFNGEEDMLFWGRVIEEYPALRSRVEEGIVLYKDNIR” was -0.711; that for “HMQADTATITGNGVNMRSGPGTNYQIIDTIPKGTVAEVLSQQDGWVKIYSARISGWVSASYVEIKQT” was -2.5.
As to “HMQAGNAVEQYPTIGRLEEVTLGRSQPGAPIGERLSTLETVVFKRNFNDDSLFDRTERLKKTILGG”, the “soluble fraction (log2)” value was -0.104.
The value for “HMQAKQVAIPDVANYSVTDAIKKLQDAGFIVSDEQREEANETVSEGKVSRTSPAAGSIRKEGTEIILYKSL” was 0.361.
To “HMQALDETTVSRIRQKAAARNLLLKVLAGQLGVARPTLSNVLARREAPSAALAARIRAFLDSP” belongs -1.45; to “HMQALTLVGQDAKDAKAALDAVDIQPAKTETDRYIYVLTEQQAQELGRTVDALYGVEGSLTLILEV”, 0.253.
To “HMQAQQYYMLLMNKATSALKIEALGANSNKAHQSFGTKTAGGSAVYWGILFNSNGKIYKIVG” belongs -3.06; to “HMQASIPQSQKDALAKELQALPPHGRNRVLSTFRQQFNISSEKISEFITTPEHLSFIRSKIAEVESDS”, 0.267; to “HMQDENAVTYLLEIKNADANDIASVLKTLKSPDADVVVYKTLNMIIFTGQGSEINGLVKVARQLDRK”, -2.04.
